Test results from patent US20210054097A1 (Novo Nordisk, published 2021).
Residue numbers refer to the chain shown, from its start. Ends that are not written are not given here.

T1: FX activation peptide 12-mer PTENPFDLLDFN (human)
T1 peptide: PTENPFDLLDFN-biotin

T2: FX activation peptide 12-mer PFDLLDFNQTQP (human)
T2 peptide: PFDLLDFNQTQP-biotin

B1: Nb 501A02 (VHH)
VHH: EVQLVESGGGLVQPGGSLRLSCAASGFTFSNYEMSWVRQAPGKGLEWVSDIGSGGGVSTYYADSVKGRFTISRDNAKNTLYLQMNSLKPEDTAMYYCARGWTYGSDGMDYWGKGTLVTVSS
notes: monovalent control Nanobody; also called control Nanobody; not shown: C-terminal FLAG3 and HIS6 tag
B2: Nb 729C08 (VHH)
VHH: EVQLVESGGGVVQPGGSLRLSCAASGFTFSDYAMSWVRQAPGKGLEWVSGITGGGRTYYADSVKGRFTISRDNSKNTLYLQMNSLRPEDTALYYCAAAILTRTRRTYDYWGQGTLVTVSS
notes: monovalent Nanobody; also called Nb 729008; not shown: C-terminal FLAG3 and HIS6 tag
B3: Nb 701B09 (VHH)
VHH: EVQLVESGGGVVQPGGSLRLSCAASGRTFSTYAMGWFRQAPGKEREFVAAISWSGSRTYYADSVKGRFTISRDNSKNTVYLQMNSLRPEDTALYYCAADATPANGELDYWGQGTLVTVSS
notes: monovalent Nanobody; also called Nb 701609; not shown: C-terminal FLAG3 and HIS6 tag
B4: Nb 702C12 (VHH)
VHH: EVQLVESGGGVVQPGGSLRLSCVASGRTFSRYAMGWFRQAPGKEREFVAAISRRGGSTNYADSVKGRFTISRDNSKNTVYLQMNSLRPEDTALYYCAADYSSGDGYLDYWGQGTLVTVSS
notes: monovalent Nanobody; not shown: C-terminal FLAG3 and HIS6 tag
B5: Nb 729A04 (VHH)
VHH: EVQLVESGGGVVQPGGSLRLSCAASGFTFSDYAMSWVRQAPGKGLEWVSGITSGGGRTYYADSVKGRFTISRDNSKNTLYLQMNSLRPEDTALYYCAAVRTLGLRGSYDYWGQGTLVTVSS
notes: as for B4
B6: Nb 730C03 (VHH)
VHH: B5 VHH with A23V, G55S, L79V, V99A, R100I, T101L, L102R, L104Y, G106K, S107T
notes: monovalent Nanobody; also called Nb 730003; not shown: C-terminal FLAG3 and HIS6 tag

Target: T1, FX activation peptide 12-mer …
Assay: peptide ELISA
In short: (§1)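 Nanobodies (FLAG-tagged) or IgG antibodies, 2 μg/mL, incubated 1 h on C-terminally biotinylated peptide captured via streptavidin, washing buffer pH 8.60 containing CaCl₂ and Tween 20. Read-out: HRP-conjugated secondary antibody with TMB colour development.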

ELISA signal relative to background	binding result	Binder
0.88	no binding (tested: 2 µg/mL)	B1
2.06		B2
3.91		B3
4.58		B4
5.18		B5

Target: T2, FX activation peptide 12-mer …
Assay: peptide ELISA
In short: as §1

ELISA signal relative to background	binding result	Binder
0.79	no binding (tested: 2 µg/mL)	B1
1.18		B2
3.48		B3
4.95		B4
1.23		B6
